For six substances, stoichiometry N results are on record in publication PMC9259494.

What all share (test): cryo-EM structure; single-particle cryo-EM of the co-purified R388 T4SS complex (VirB3-VirB10); 50 mM HEPES pH 7.6, 200 mM sodium acetate, 0.1% digitonin, 0.05 mM TDAO; maps of O-layer, I-layer, stalk, IMC protomer near-atomic, arches from the 6.18 Å map
For test [1], the target named is TrwE/VirB10 with Strep tag (R388 T4SS) (plasmid R388).
Test [2] addresses TrwF/VirB9 (R388 T4SS) (plasmid R388).
Test [3] deals with TrwG/VirB8 (R388 T4SS) (plasmid R388).
The target in test [4] is TrwI/VirB6 (R388 T4SS) (plasmid R388).
The target of test [5] is TrwJ/VirB5 (R388 T4SS) (plasmid R388).
In test [6] the target is TrwK/VirB4 (R388 T4SS) (plasmid R388).

Take “TrwE/VirB10 with Strep tag (R388 T4SS) (natural protein)”: the stoichiometry N in test [1] was determined as 14.

With “TrwF/VirB9 (R388 T4SS) (natural protein)”, the stoichiometry N in test [2] was 16.

“TrwG/VirB8 (R388 T4SS) (natural protein)” returned a stoichiometry N in test [3] of 18.

In turn, “TrwI/VirB6 (R388 T4SS) (natural protein)” gave a stoichiometry N in test [4] of 5.

The substance “TrwJ/VirB5 (R388 T4SS) (natural protein)” gave a stoichiometry N in test [5] of 5.

In the case of “TrwK/VirB4 (R388 T4SS) (natural protein)”, the stoichiometry N in test [6] turned out to be 12.
